Patent US20240228645A1 (DRAGONFLY THERAPEUTICS, published 2024)
Positions count from the first letter of the chain named. Read-outs that look alike come from different tables or passages of the source.

B1: 3A1 (antibody, V domains shown)
VH: QVQLQQPGAELVKPGASVKLSCKASGYTFTSYWMHWVKQRPGQGLEWIGEIDPFDSYTNYNQNFKGKATLTVDKSSSTAYMLLSSLTSDDSAVYYCARERLRLWSYYFDYWGQGTTLTVSS
VL: DVVMTQTPLSLPVSLGDQASISCRSSQSIVHSNGNTYLEWYLQKPGQSPKLLIYKVSNRLSGVPDRFSGSGSGTDFTLKISRVEAEDLGVYYCFQGSHDPFTFGSGTKLEIK
notes: Hybridoma clone from DNA-immunized SWR/J mice; also called clone 3A1
B2: 7G4 (antibody, V domains shown)
VH: B1 VH with I51V, F54S, N63K, M81I, S85N, L101V, Y107F
VL: B1 VL
notes: Hybridoma clone from DNA-immunized SWR/J mice; also called clone 7G4
B3: 10H7-C5 (antibody, V domains shown)
VH: EVQLVESGGGLVKPGGSLKLSCAASGFSFSRYAMSWVRQTPEKRLEWVATISDGGSYTHYRDNVKGRFTISRDNAKNNLNLQMSHLKSEDTAIYYCARNEMGLYFDYDVYAMDYWGQGTSVTVSS
VL: DIVMTQTPLSLPVSLGDQASISCRSSQSLLHSNGNTYLYWYLQKPGQSPKLLIHRVSNRFSGVPDRFGGSGSGTDFTLKIIRVEAEDLGVYFCFQGTHVPWTFGGGTKLEIK
notes: Hybridoma clone from DNA-immunized SWR/J mice; also called clone 10H7-C5
B4: 1B3-A7 (antibody, V domains shown)
VH: EVQLVESGGGLVKPGGSLKLSCVVSGFTFSNYAMSWVRQTPEKRLEWVATISDGGGYTYYPDSVKGRFTISRDNAKNNLYLQMSHLKSEDTAIYYCARDDLGGGNYVSSYFDVWGTGTTVTVSS
VL: B3 VL with I2V, L15P, L30V, H54Y, G68S, I81N, W101L, G105S, I111L
notes: Hybridoma clone from DNA-immunized SWR/J mice; also called clone 1B3-A7

What was measured:
[1] = target: T1, human BAFF-R expressed on cells (hBAFF-R-CHO isogenic CHO cells; BAFF-R+ cancer cells) (human, UniProt Q96RJ3 1-184); test: flow cytometry on hBAFFR-CHO cells, anti-mouse IgG(H+L)-PE
T1 construct: whole, on cells; also called hBAFF-R^+ cells; BAFF-R+ CHO cells

[2] = target: T1, human BAFF-R expressed on cells …; test: as above; remark: listed apart in the source

EC50 (read off the curve) [1] [nM] | EC50 (read off the curve) [2] [nM] | Binder
~0.3 | – | B1
~0.3 | – | B2
– | ~1 | B3
– | 1 to 2 | B4
